# Laboratory results taken from PMC13544220, “Glycemic and bodyweight effects of GIPR coding variation reflect differences in surface expression and intrinsic functional impairment” (Science Advances, 2026).
# Assays:
# Type in all cases: cell-based, human
# [1] = test system: wild-type and variant SNAP-GIPR; assay: cADDis cAMP imaging in AD293 cells, ensemble, expression-matched and per decile; conditions: Fig S3F, cADDis, mean
# Summary of the method: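 Per-cell cAMP from cADDis intensity over time, with cells excluded by IBMX/FSK response criteria. Expression matching used wild-type surface-SNAP deciles, top and bottom trimmed, mean of decile means. Ensemble values ignore deciles. Wide-field imaging at 37 °C in KRBH with 6 mM glucose, 0.1% BSA, 24 h post-transfection in AD293.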
# [2] = test system: wild-type and variant SNAP-GIPR; assay: Constitutive and agonist-mediated internalization, reversible SNAP-tag labelling, AD293 cells; set-up: key to Internalisation, Vehicle / Internalisation, +GIP / Internalisation, GIP-only: % internalization: residual fluorescence after Mesna vs pre-Mesna; Surface expression: unit not given here; conditions: Mean; for +GIP internalisation (100 nM) / GIP-specific internalisation (100 nM) / Constitutive internalisation (100 nM) / Surface expression: Fig 4E; for +GIP internalisation (100 nM) / GIP-specific internalisation (100 nM): GIP 100 nM; for Internalisation, +GIP / Internalisation, GIP-only / Internalisation, Vehicle: Fig S4C, AD293
# Summary of the method: (§1)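 % internalization = residual specific fluorescence after Mesna / pre-Mesna value. Imaging in TNE buffer pH 8.6; second image 10 min post-Mesna.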
# [3] = test system: wild-type and variant SNAP-GIPR; assay: Constitutive and agonist-mediated internalization, reversible SNAP-tag labelling, INS-1 cells; set-up: key to Internalisation, GIP-only / Internalisation, Vehicle / Internalisation, +GIP: % internalization: residual fluorescence after Mesna vs pre-Mesna; conditions: Mean; for +GIP internalisation (100 nM) / GIP-specific internalisation (100 nM) / Constitutive internalisation (100 nM): Fig 4G; for +GIP internalisation (100 nM) / GIP-specific internalisation (100 nM): GIP 100 nM; for Internalisation, +GIP / Internalisation, GIP-only / Internalisation, Vehicle: Fig S4C, INS-1
# Summary of the method: as §1
# [4] = test system: wild-type and variant SNAP-GIPR; assay: Surface SNAP-GIPR expression (SNAP-tag labelling) in AD293 cells; conditions: for AD293 Surface: Fig S3E, mean; for Surface SNAP-GIPR expression: sheet Fig 1C;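 on all read-outs here: scaled to the experimental average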
# Summary of the method: (§2)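 Surface GIPR is quantified from wide-field images after labelling intact transfected cells with a membrane-impermeant SNAP probe at 500 nM for 10 min at room temperature. Specific signal, corrected for nontransfected cells, is normalized to the experiment-wide average or to wild-type.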
# [5] = test system: wild-type and variant SNAP-GIPR; assay: Surface SNAP-GIPR expression (SNAP-tag labelling) in INS-1 cells; conditions: Fig 4G; Mean
# Summary of the method: as §2
# [6] = test system: wild-type and variant SNAP-GIPR; assay: Single-concentration GIP cAMP response by HTRF in AD293 cells; conditions: Fig S3F, HTRF, mean;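 further: ratio to experiment-wide average response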
# Experimental: (§3) All variants were tested in parallel on each occasion to control for transfection efficiency differences between experiments.
# [7] = test system: wild-type and variant SNAP-GIPR; assay: Single-concentration GIP cAMP response by HTRF in INS-1 cells; conditions: Fig S3E, mean
# Experimental: as §3
# [8] = column repeated, paired with cAMP 100 nM
molecule,measurement,setting,value
"G438S (protein, UniProt P48546 22-466, looked up, variant G438S) Gastric inhibitory …: RAETGSKGQTAGELYQRWERYRRECQETLAAAEPPSGLACNGSFDMYVCWDYAAPNATARASCPWYLPWHHHVAAGFVLRQCGSDGQWGLWRDHTQCENPEKNEAFLDQRLILERLQVMYTVGYSLSLATLLLALLILSLFRRLHCTRNYIHINLFTSFMLRAAAILSRDRLLPRPGPYLGDQALALWNQALAACRTAQIVTQYCVGANYTWLLVEGVYLHSLLVLVGGSEEGHFRYYLLLGWGAPALFVIPWVIVRYLYENTQCWERNEVKAIWWIIRTPILMTILINFLIFIRILGILLSKLRTRQMRCRDYRLRLARSTLTLVPLLGVHEVVFAPVTEEQARGALRFAKLGFEIFLSSFQGFLVSVLYCFINKEVQSEIRRGWHHCRLRRSLGEEQRQLPERAFRALPSGSGPSEVPTSRGLSSGTLPGPGNEASRELESYC",AD293 100 pM cADDis,[1],35.9341
same,AD293 100 nM cADDis,[1],39.48
same,+GIP internalisation (100 nM),[2],0.9894
same,GIP-specific internalisation (100 nM),[2],0.334
same,Constitutive internalisation (100 nM),[2],0.6554
same,Surface expression,[2],1.622
same,"Internalisation, +GIP",[2],61.1161
same,"Internalisation, GIP-only",[2],20.3657
same,"Internalisation, Vehicle",[2],40.7504
same,+GIP internalisation (100 nM),[3],0.7615
same,GIP-specific internalisation (100 nM),[3],0.2318
same,Constitutive internalisation (100 nM),[3],0.5297
same,"Internalisation, +GIP",[3],53.475
same,"Internalisation, GIP-only",[3],16.2333
same,"Internalisation, Vehicle",[3],37.2417
same,AD293 Surface,[4]; [8],1.603
same,AD293 Surface,[4]; paired with cAMP 100 pM,1.603
same,Surface SNAP-GIPR expression,[4]; replicate 1,1.682
same,Surface SNAP-GIPR expression,[4]; replicate 2,1.688
same,Surface SNAP-GIPR expression,[4]; replicate 3,1.832
same,Surface SNAP-GIPR expression,[4]; replicate 4,2.161
same,Surface SNAP-GIPR expression,[4]; replicate 5,1.111
same,Surface SNAP-GIPR expression,[4]; replicate 6,1.49
same,Surface SNAP-GIPR expression,[4]; replicate 7,1.615
same,Surface SNAP-GIPR expression,[4]; replicate 8,1.417
same,Surface SNAP-GIPR expression,[4]; replicate 9,1.842
same,Surface SNAP-GIPR expression,[4]; replicate 10,1.526
same,Surface SNAP-GIPR expression,[4]; replicate 11,1.806
same,Surface SNAP-GIPR expression,[4]; replicate 12,1.746
same,Surface SNAP-GIPR expression,[4]; replicate 13,1.595
same,Surface SNAP-GIPR expression,[4]; replicate 14,2.152
same,Surface SNAP-GIPR expression,[4]; replicate 15,1.581
same,Surface SNAP-GIPR expression,[4]; replicate 16,1.661
same,Surface SNAP-GIPR expression,[4]; replicate 17,1.607
same,Surface SNAP-GIPR expression,[4]; replicate 18,1.471
same,Surface SNAP-GIPR expression,[4]; replicate 19,1.527
same,Surface SNAP-GIPR expression,[4]; replicate 20,1.649
same,Surface SNAP-GIPR expression,[4]; replicate 21,1.401
same,Surface SNAP-GIPR expression,[4]; replicate 22,1.64
same,Surface SNAP-GIPR expression,[4]; replicate 23,1.516
same,Surface SNAP-GIPR expression,[4]; replicate 24,1.737
same,Surface SNAP-GIPR expression,[4]; replicate 25,1.567
same,Surface SNAP-GIPR expression,[4]; replicate 26,1.448
same,Surface SNAP-GIPR expression,[4]; replicate 27,1.549
same,Surface SNAP-GIPR expression,[4]; replicate 28,1.925
same,Surface SNAP-GIPR expression,[4]; replicate 29,1.515
same,Surface SNAP-GIPR expression,[4]; replicate 30,1.373
same,Surface SNAP-GIPR expression,[4]; replicate 31,1.117
same,Surface SNAP-GIPR expression,[4]; replicate 32,1.576
same,Surface SNAP-GIPR expression,[4]; replicate 33,1.347
same,Surface SNAP-GIPR expression,[4]; replicate 34,1.595
same,Surface SNAP-GIPR expression,[4]; replicate 35,1.243
same,Surface SNAP-GIPR expression,[4]; replicate 36,1.381
same,Surface SNAP-GIPR expression,[4]; replicate 37,1.612
same,Surface SNAP-GIPR expression,[4]; replicate 38,1.594
same,Surface SNAP-GIPR expression,[4]; replicate 39,1.863
same,Surface SNAP-GIPR expression,[4]; replicate 40,1.797
same,Surface SNAP-GIPR expression,[4]; replicate 41,1.787
same,Surface expression,[5],1.361
same,AD293 100 pM HTRF,[6],1.746
same,AD293 100 nM HTRF,[6],1.655
same,INS-1 cAMP (100 nM),[7],1.306
"R300W (protein, UniProt P48546 22-466, looked up, variant R300W) Gastric inhibitory …: RAETGSKGQTAGELYQRWERYRRECQETLAAAEPPSGLACNGSFDMYVCWDYAAPNATARASCPWYLPWHHHVAAGFVLRQCGSDGQWGLWRDHTQCENPEKNEAFLDQRLILERLQVMYTVGYSLSLATLLLALLILSLFRRLHCTRNYIHINLFTSFMLRAAAILSRDRLLPRPGPYLGDQALALWNQALAACRTAQIVTQYCVGANYTWLLVEGVYLHSLLVLVGGSEEGHFRYYLLLGWGAPALFVIPWVIVRYLYENTQCWERNEVKAIWWIIWTPILMTILINFLIFIRILGILLSKLRTRQMRCRDYRLRLARSTLTLVPLLGVHEVVFAPVTEEQARGALRFAKLGFEIFLSSFQGFLVSVLYCFINKEVQSEIRRGWHHCRLRRSLGEEQRQLPERAFRALPSGSGPGEVPTSRGLSSGTLPGPGNEASRELESYC",AD293 100 pM cADDis,[1],30.0031
same,AD293 100 nM cADDis,[1],37.61
same,+GIP internalisation (100 nM),[2],0.5841
same,GIP-specific internalisation (100 nM),[2],0.1667
same,Constitutive internalisation (100 nM),[2],0.4174
same,Surface expression,[2],1.0064
same,"Internalisation, +GIP",[2],57.8459
same,"Internalisation, GIP-only",[2],16.6116
same,"Internalisation, Vehicle",[2],41.2342
same,+GIP internalisation (100 nM),[3],0.4496
same,GIP-specific internalisation (100 nM),[3],0.1127
same,Constitutive internalisation (100 nM),[3],0.3368
same,"Internalisation, +GIP",[3],49.27
same,"Internalisation, GIP-only",[3],12.1983
same,"Internalisation, Vehicle",[3],37.0717
same,AD293 Surface,[4]; [8],0.7271
same,AD293 Surface,[4]; paired with cAMP 100 pM,0.7271
same,Surface SNAP-GIPR expression,[4]; replicate 1,0.3062
same,Surface SNAP-GIPR expression,[4]; replicate 2,0.3328
same,Surface SNAP-GIPR expression,[4]; replicate 3,0.1592
same,Surface SNAP-GIPR expression,[4]; replicate 4,0.8304
same,Surface SNAP-GIPR expression,[4]; replicate 5,0.6683
same,Surface SNAP-GIPR expression,[4]; replicate 6,0.6889
same,Surface SNAP-GIPR expression,[4]; replicate 7,0.4744
same,Surface SNAP-GIPR expression,[4]; replicate 8,0.7417
same,Surface SNAP-GIPR expression,[4]; replicate 9,0.7319
same,Surface SNAP-GIPR expression,[4]; replicate 10,0.4888
same,Surface SNAP-GIPR expression,[4]; replicate 11,0.5692
same,Surface SNAP-GIPR expression,[4]; replicate 12,0.5524
same,Surface SNAP-GIPR expression,[4]; replicate 13,0.6029
same,Surface SNAP-GIPR expression,[4]; replicate 14,0.8734
same,Surface SNAP-GIPR expression,[4]; replicate 15,0.6318
same,Surface SNAP-GIPR expression,[4]; replicate 16,0.7838
same,Surface SNAP-GIPR expression,[4]; replicate 17,0.7645
same,Surface SNAP-GIPR expression,[4]; replicate 18,0.8288
same,Surface SNAP-GIPR expression,[4]; replicate 19,0.8256
same,Surface SNAP-GIPR expression,[4]; replicate 20,0.8307
same,Surface SNAP-GIPR expression,[4]; replicate 21,0.7929
same,Surface SNAP-GIPR expression,[4]; replicate 22,0.7293
same,Surface SNAP-GIPR expression,[4]; replicate 23,0.8041
same,Surface SNAP-GIPR expression,[4]; replicate 24,0.7665
same,Surface SNAP-GIPR expression,[4]; replicate 25,0.8609
same,Surface SNAP-GIPR expression,[4]; replicate 26,0.8382
same,Surface SNAP-GIPR expression,[4]; replicate 27,0.9176
same,Surface SNAP-GIPR expression,[4]; replicate 28,0.9055
same,Surface SNAP-GIPR expression,[4]; replicate 29,1.047
same,Surface SNAP-GIPR expression,[4]; replicate 30,0.4161
same,Surface SNAP-GIPR expression,[4]; replicate 31,0.3148
same,Surface SNAP-GIPR expression,[4]; replicate 32,0.4777
same,Surface SNAP-GIPR expression,[4]; replicate 33,0.3827
same,Surface SNAP-GIPR expression,[4]; replicate 34,0.923
same,Surface SNAP-GIPR expression,[4]; replicate 35,0.8683
same,Surface SNAP-GIPR expression,[4]; replicate 36,0.9333
same,Surface SNAP-GIPR expression,[4]; replicate 37,0.8174
same,Surface SNAP-GIPR expression,[4]; replicate 38,1.012
same,Surface SNAP-GIPR expression,[4]; replicate 39,1.271
same,Surface SNAP-GIPR expression,[4]; replicate 40,1.105
same,Surface SNAP-GIPR expression,[4]; replicate 41,0.9446
same,Surface expression,[5],0.9197
same,AD293 100 pM HTRF,[6],0.5327
same,AD293 100 nM HTRF,[6],1.632
same,INS-1 cAMP (100 nM),[7],1.326
